Source: the supplement of paper PMC5998384

Legend:
HeLa Kyoto [1] = test: solubility change mitosis vs G1/S (difference of NP-40 vs SDS log2 ratios) (log2 ratio difference); higher = more soluble in mitosis
HeLa Kyoto [2] = test: melting temperature (median over replicates), in situ; higher = more thermally stable
HeLa Kyoto [3] = test: thermal stability score vs G1/S (z-score of summed log2 fold changes over temperatures); higher = more thermally stable than in G1/S
HeLa Kyoto [4] = test: solubility in G1/S (NP-40 vs SDS abundance) (log2 ratio); higher = more soluble; settings: cell cycle stage: G1/S
[5] = cell cycle stage: early G1 (4.5 h after nocodazole release)
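Wherever melting temperature (median over replicates), in situ is given: HeLa Kyoto cells synchronized by double thymidine or nocodazole block, proteins quantified by TMT10plex mass spectrometry, three independent biological replicates.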
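Wherever solubility change mitosis vs G1/S (difference of NP-40 vs SDS log2 ratios) is given: synchronized HeLa Kyoto cells (double thymidine block for G1/S, nocodazole release for mitosis), protein amounts in NP-40 versus SDS lysates quantified by mass spectrometry, three biological replicates.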
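Wherever solubility in G1/S (NP-40 vs SDS abundance) is given: HeLa Kyoto cells arrested at G1/S by double thymidine block, proteins quantified by TMT10plex mass spectrometry in mild NP-40 versus SDS extracts, three biological replicates.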
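Wherever thermal stability score vs G1/S (z-score of summed log2 fold changes over temperatures) is given: synchronized HeLa Kyoto cells, proteins quantified by TMT10plex mass spectrometry, three biological replicates, mitosis taken 0.5 h after nocodazole release, G1/S directly after double thymidine block.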

Sequence of TIMM17A (chain, as listed by the source): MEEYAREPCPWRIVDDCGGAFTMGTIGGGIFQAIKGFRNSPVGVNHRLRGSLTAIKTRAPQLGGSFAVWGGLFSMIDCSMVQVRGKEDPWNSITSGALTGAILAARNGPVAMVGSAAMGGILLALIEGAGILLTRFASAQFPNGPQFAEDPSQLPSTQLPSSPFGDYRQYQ
Sequence of SIRT5 (chain, as listed by the source): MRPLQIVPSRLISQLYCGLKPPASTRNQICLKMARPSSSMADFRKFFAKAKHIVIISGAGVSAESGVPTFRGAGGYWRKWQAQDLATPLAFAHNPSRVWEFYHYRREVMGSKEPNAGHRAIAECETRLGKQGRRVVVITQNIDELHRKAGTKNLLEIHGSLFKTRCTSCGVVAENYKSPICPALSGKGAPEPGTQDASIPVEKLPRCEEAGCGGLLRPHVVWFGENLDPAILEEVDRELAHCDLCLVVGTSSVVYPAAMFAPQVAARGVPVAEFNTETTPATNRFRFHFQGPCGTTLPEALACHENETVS
Sequence of SLC7A1 (chain, as listed by the source): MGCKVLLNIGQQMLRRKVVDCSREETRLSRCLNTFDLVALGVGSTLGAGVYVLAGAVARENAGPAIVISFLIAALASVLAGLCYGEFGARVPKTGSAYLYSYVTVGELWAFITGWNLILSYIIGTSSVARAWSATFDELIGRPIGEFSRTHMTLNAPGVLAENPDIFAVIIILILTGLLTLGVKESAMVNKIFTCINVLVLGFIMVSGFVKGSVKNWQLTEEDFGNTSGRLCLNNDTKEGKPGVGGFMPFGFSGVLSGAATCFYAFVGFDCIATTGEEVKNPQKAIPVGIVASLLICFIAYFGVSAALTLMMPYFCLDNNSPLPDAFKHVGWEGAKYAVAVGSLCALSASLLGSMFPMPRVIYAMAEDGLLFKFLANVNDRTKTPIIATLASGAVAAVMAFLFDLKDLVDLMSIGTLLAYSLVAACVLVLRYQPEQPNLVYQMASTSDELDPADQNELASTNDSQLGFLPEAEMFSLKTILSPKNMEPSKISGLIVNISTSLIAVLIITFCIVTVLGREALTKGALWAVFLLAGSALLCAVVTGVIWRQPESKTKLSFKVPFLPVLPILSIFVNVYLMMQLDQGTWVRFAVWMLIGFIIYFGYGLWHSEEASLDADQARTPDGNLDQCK
Sequence of PPP2R5E (chain, as listed by the source): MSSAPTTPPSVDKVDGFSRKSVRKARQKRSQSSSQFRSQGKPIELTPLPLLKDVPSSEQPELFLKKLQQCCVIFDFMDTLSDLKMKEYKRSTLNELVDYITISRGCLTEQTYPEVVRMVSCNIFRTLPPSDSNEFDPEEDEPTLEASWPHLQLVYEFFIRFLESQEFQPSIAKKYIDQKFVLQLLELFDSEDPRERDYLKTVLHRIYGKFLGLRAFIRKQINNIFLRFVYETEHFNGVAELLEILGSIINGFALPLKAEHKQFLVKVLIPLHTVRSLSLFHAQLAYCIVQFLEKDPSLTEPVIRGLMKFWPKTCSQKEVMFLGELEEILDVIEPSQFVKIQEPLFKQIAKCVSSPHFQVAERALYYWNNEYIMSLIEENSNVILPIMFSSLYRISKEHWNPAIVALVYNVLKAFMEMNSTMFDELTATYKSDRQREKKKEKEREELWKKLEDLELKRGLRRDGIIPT
Sequence of PSME2 (chain, as listed by the source): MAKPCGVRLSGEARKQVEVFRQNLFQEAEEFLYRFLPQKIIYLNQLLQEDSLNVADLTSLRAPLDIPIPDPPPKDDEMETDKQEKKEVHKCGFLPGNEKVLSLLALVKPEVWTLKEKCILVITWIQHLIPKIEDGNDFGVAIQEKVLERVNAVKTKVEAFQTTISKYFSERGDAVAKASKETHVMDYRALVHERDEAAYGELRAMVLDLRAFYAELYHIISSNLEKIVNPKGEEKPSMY
Sequence of THOP1 (chain, as listed by the source): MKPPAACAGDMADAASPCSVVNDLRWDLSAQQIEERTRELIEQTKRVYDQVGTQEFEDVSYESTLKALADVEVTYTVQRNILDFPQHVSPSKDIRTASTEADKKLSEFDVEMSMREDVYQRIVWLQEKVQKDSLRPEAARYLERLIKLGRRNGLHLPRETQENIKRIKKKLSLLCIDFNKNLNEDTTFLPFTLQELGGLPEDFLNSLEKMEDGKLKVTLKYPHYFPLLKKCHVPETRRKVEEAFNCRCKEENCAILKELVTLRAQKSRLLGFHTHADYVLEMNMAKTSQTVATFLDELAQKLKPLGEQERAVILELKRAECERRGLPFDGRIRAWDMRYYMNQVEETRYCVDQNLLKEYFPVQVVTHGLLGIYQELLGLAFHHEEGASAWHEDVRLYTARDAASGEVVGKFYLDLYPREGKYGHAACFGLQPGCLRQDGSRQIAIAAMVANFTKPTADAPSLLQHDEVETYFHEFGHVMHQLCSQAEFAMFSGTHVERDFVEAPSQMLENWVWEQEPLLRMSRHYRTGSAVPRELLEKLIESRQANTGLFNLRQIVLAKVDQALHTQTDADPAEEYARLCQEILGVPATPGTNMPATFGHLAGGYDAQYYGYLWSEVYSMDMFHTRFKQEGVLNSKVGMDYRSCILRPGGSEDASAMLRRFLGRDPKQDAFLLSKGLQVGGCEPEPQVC
Sequence of RPIA (chain, as listed by the source): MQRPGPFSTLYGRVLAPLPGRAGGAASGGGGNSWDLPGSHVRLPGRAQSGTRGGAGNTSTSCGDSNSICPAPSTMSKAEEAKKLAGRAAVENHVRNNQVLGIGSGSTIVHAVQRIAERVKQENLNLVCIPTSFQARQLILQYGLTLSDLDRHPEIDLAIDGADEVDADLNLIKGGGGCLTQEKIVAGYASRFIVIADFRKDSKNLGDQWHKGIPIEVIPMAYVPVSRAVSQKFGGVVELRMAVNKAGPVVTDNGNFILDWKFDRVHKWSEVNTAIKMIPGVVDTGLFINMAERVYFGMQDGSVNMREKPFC
Sequence of STK38L (chain, as listed by the source): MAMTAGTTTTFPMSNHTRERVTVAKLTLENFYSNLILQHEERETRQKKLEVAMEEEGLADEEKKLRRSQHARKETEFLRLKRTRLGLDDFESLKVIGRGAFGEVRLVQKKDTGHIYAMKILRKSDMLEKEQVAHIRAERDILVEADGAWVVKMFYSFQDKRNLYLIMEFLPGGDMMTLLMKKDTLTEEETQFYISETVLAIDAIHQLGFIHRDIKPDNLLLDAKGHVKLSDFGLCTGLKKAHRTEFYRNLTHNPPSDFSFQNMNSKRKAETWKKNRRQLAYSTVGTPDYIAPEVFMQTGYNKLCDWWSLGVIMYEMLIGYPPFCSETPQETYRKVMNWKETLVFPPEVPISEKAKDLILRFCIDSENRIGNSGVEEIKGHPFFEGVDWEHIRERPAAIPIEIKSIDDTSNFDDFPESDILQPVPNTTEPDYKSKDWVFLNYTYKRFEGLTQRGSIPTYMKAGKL
Sequence of REEP5 (chain, as listed by the source): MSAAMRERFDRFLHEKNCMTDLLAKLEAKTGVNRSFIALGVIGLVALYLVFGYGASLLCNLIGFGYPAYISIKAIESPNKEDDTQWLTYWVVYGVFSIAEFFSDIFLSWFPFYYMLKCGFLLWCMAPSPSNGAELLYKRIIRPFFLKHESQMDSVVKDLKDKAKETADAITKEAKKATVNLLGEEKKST
Sequence of RHOB (chain, as listed by the source): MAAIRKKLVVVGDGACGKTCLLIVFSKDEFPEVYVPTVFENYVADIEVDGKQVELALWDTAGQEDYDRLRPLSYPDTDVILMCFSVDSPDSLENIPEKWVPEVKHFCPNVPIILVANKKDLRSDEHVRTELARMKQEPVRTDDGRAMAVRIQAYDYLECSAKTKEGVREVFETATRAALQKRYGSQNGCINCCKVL
Sequence of SLC38A10 (chain, as listed by the source): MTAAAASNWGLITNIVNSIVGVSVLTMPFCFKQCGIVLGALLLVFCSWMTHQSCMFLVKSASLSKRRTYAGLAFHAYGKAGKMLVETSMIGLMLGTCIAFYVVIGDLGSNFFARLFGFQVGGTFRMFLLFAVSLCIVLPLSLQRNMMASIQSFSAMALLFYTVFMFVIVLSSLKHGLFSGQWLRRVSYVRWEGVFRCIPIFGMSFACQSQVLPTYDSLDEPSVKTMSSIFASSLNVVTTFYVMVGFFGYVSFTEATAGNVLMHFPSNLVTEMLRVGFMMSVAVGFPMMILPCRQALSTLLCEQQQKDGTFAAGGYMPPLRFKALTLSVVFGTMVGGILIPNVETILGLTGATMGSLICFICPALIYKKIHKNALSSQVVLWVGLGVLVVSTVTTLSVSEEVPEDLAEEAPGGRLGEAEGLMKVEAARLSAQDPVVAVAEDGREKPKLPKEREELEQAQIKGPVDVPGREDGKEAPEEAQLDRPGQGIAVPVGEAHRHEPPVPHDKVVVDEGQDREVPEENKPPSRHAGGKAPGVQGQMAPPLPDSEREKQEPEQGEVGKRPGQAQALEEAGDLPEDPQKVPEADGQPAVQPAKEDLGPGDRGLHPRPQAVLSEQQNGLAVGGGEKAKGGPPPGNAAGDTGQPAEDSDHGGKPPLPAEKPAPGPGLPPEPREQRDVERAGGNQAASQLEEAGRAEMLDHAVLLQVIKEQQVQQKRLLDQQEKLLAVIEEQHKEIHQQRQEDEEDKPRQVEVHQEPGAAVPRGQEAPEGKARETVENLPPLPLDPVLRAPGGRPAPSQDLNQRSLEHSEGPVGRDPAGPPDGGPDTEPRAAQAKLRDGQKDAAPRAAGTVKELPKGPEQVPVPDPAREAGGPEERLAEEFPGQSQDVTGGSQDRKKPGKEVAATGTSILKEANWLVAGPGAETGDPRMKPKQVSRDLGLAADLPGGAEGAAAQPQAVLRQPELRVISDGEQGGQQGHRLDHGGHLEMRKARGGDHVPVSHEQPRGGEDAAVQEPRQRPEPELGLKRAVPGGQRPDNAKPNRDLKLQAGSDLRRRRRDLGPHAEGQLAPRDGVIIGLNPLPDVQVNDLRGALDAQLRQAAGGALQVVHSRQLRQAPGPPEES

Substance	solubility change mitosis (log2) (HeLa Kyoto [1])	melting temperature (HeLa Kyoto [2]; cell cycle stage: G1/S)	melting temperature (HeLa Kyoto [2]; cell cycle stage: mitosis)	thermal stability score (HeLa Kyoto [3]; [5])	thermal stability score (HeLa Kyoto [3]; cell cycle stage: mitosis)	solubility in G1/S (log2) (HeLa Kyoto [4])
MYHSLSETRHPLQPEEQEVGIDPLSSYSNKSGGDSNKNGRRTSSTLDSEGTFNSYRKEWEELFVNNNYLATIRQKGINGQLRSSRFRSICWKLFLCVLPQDKSQWISRIEELRAWYSNIKEIHITNPRKVVGQQDLMINNPLSQDEGSLWNKFFQDKELRSMIEQDVKRTFPEMQFFQQENVRKILTDVLFCYARENEQLLYKQGMHELLAPIVFVLHCDHQAFLHASESAQPSEEMKTVLNPEYLEHDAYAVFSQLMETAEPWFSTFEHDGQKGKETLMTPIPFARPQDLGPTIAIVTKVNQIQDHLLKKHDIELYMHLNRLEIAPQIYGLRWVRLLFGREFPLQDLLVVWDALFADGLSLGLVDYIFVAMLLYIRDALISSNYQTCLGLLMHYPFIGDVHSLILKALFLRDPKRNPRPVTYQFHPNLDYYKARGADLMNKSRTNAKGAPLNINKVSNSLINFGRKLISPAMAPGSAGGPVPGGNSSSSSSVVIPTRTSAEAPSHHLQQQQQQQRLMKSESMPVQLNKGLSSKNISSSPSVESLPGGREFTGSPPSSATKKDSFFSNISRSRSHSKTMGRKESEEELEAQISFLQGQLNDLDAMCKYCAKVMDTHLVNIQDVILQENLEKEDQILVSLAGLKQIKDILKGSLRFNQSQLEAEENEQITIADNHYCSSGQGQGRGQGQSVQMSGAIKQASSETPGCTDRGNSDDFILISKDDDGSSARGSFSGQAQPLRTLRSTSGKSQAPVCSPLVFSDPLMGPASASSSNPSSSPDDDSSKDSGFTIVSPLDI [TBC1D5]	-0.272	50.7 °C	50.1 °C	0.296	0.901	0.207
MYIKQVIIQGFRSYRDQTIVDPFSSKHNVIVGRNGSGKSNFFYAIQFVLSDEFSHLRPEQRLALLHEGTGPRVISAFVEIIFDNSDNRLPIDKEEVSLRRVIGAKKDQYFLDKKMVTKNDVMNLLESAGFSRSNPYYIVKQGKINQMATAPDSQRLKLLREVAGTRVYDERKEESISLMKETEGKREKINELLKYIEERLHTLEEEKEELAQYQKWDKMRRALEYTIYNQELNETRAKLDELSAKRETSGEKSRQLRDAQQDARDKMEDIERQVRELKTKISAMKEEKEQLSAERQEQIKQRTKLELKAKDLQDELAGNSEQRKRLLKERQKLLEKIEEKQKELAETEPKFNSVKEKEERGIARLAQATQERTDLYAKQGRGSQFTSKEERDKWIKKELKSLDQAINDKKRQIAAIHKDLEDTEANKEKNLEQYNKLDQDLNEVKARVEELDRKYYEVKNKKDELQSERNYLWREENAEQQALAAKREDLEKKQQLLRAATGKAILNGIDSINKVLDHFRRKGINQHVQNGYHGIVMNNFECEPAFYTCVEVTAGNRLFYHIVDSDEVSTKILMEFNKMNLPGEVTFLPLNKLDVRDTAYPETNDAIPMISKLRYNPRFDKAFKHVFGKTLICRSMEVSTQLARAFTMDCITLEGDQVSHRGALTGGYYDTRKSRLELQKDVRKAEEELGELEAKLNENLRRNIERINNEIDQLMNQMQQIETQQRKFKASRDSILSEMKMLKEKRQQSEKTFMPKQRSLQSLEASLHAMESTRESLKAELGTDLLSQLSLEDQKRVDALNDEIRQLQQENRQLLNERIKLEGIITRVETYLNENLRKRLDQVEQELNELRETEGGTVLTATTSELEAINKRVKDTMARSEDLDNSIDKTEAGIKELQKSMERWKNMEKEHMDAINHDTKELEKMTNRQGMLLKKKEECMKKIRELGSLPQEAFEKYQTLSLKQLFRKLEQCNTELKKYSHVNKKALDQFVNFSEQKEKLIKRQEELDRGYKSIMELMNVLELRKYEAIQLTFKQVSKNFSEVFQKLVPGGKATLVMKKGDVEGSQSQDEGEGSGESERGSGSQSSVPSVDQFTGVGIRVSFTGKQGEMREMQQLSGGQKSLVALALIFAIQKCDPAPFYLFDEIDQALDAQHRKAVSDMIMELAVHAQFITTTFRPELLESADKFYGVKFRNKVSHIDVITAEMAKDFVEDDTTHG [SMC3]	-0.0245	52.6 °C	51.5 °C	-0.978	-1.78	-0.182
MYO9B	0.00466	50.4 °C	49.6 °C	-0.189	-0.197	-0.141
MYOF	-0.129	53.8 °C	53.4 °C	-1.57	-1.2	-0.326
MYTFVVRDENSSVYAEVSRLLLATGHWKRLRRDNPRFNLMLGERNRLPFGRLGHEPGLVQLVNYYRGADKLCRKASLVKLIKTSPELAESCTWFPESYVIYPTNLKTPVAPAQNGIQPPISNSRTDEREFFLASYNRKKEDGEGNVWIAKSSAGAKGEGILISSEASELLDFIDNQGQVHVIQKYLEHPLLLEPGHRKFDIRSWVLVDHQYNIYLYREGVLRTASEPYHVDNFQDKTCHLTNHCIQKEYSKNYGKYEEGNEMFFKEFNQYLTSALNITLESSILLQIKHIIRNCLLSVEPAISTKHLPYQSFQLFGFDFMVDEELKVWLIEVNGAPACAQKLYAELCQGIVDIAISSVFPPPDVEQPQTQPAAFIKL [TTL]	-0.197	53.9 °C	53.4 °C	0.614	-0.119	0.146
NCAPD3	-0.0894	48.4 °C	49.8 °C	0.362	0.667	-0.316
NFAT5	-0.176	50 °C	50.6 °C	0.898	1.21	-0.0162
NUP98	0.26	48.4 °C	48.6 °C	-1.52	-1.57	-0.162
NUP188	-0.108	51 °C	49 °C	-2.04	-2.93	-0.299
OCRL	-0.122	51.4 °C	51.8 °C	-0.419	-0.472	-0.137
OLA1	-0.109	51.3 °C	51.2 °C	1.23	0.644	0.346
PIEZO1	-0.0922	57.1 °C	56.5 °C	-1.8	-2.23	-0.227
PIK3C2B	-0.142	50.1 °C	49.7 °C	-0.0552	-0.413	-0.164
PKN1	-0.112	49.9 °C	50.6 °C	0.284	0.47	0.0374
PLXNA1	0.0188	53.8 °C	52.5 °C	-1.69	-1.65	-0.0498
PPP2R5D	0.0185	48.2 °C	48.4 °C	1.54	3.42	-0.0693
PPP2R5E	-0.171	49.9 °C	49.7 °C	0.446	0.409	-0.065
PROSC	-0.0262	48.8 °C	49.7 °C	1.09	0.951	0.225
PRRC2B	0.078	51.9 °C	52.2 °C	1.22	3.15	-0.236
PSIP1	0.557	50.8 °C	52.2 °C	-1.03	-2.11	0.071
PSME2	0.0782	52.8 °C	53.8 °C	-0.487	2.4	0.142
PSME4	-0.0943	52.1 °C	52.2 °C	-0.516	-0.817	-0.391
PTPN23	-0.134	49.6 °C	49.2 °C	-1.39	-2.28	0.216
RAB1A	-0.093	60.3 °C	60.6 °C	-1.51	-4.28	0.166

Substance	solubility change mitosis (log2) (HeLa Kyoto [1])	melting temperature (HeLa Kyoto [2]; cell cycle stage: G1/S)	melting temperature (HeLa Kyoto [2]; cell cycle stage: mitosis)	thermal stability score (HeLa Kyoto [3]; [5])	thermal stability score (HeLa Kyoto [3]; cell cycle stage: mitosis)	solubility in G1/S (log2) (HeLa Kyoto [4])
RAB1B	-0.0321	57.8 °C	58 °C	-0.394	-2.04	0.0965
RAB35	0.0226	56.3 °C	56.2 °C	-0.529	-1.17	-0.0302
RB1CC1	-0.219	51.4 °C	50.2 °C	-0.0649	0.267	-0.0448
RBBP6	0.511	49 °C	49.9 °C	-2.06	3.66	-0.908
RBPJ	0.039	54.8 °C	54.4 °C	0.21	-0.976	-0.198
REEP5	-0.114	55.4 °C	57.6 °C	-0.45	-0.719	-0.148
RHOB	-0.114	57.2 °C	58.2 °C	-0.544	-0.587	0.157
RHOT2	-0.0417	50.7 °C	50.5 °C	-0.0452	-0.352	-0.00866
RNF213	-0.11	49.9 °C	49.8 °C	0.57	1.78	-0.346
ROBO1	-0.145	55.3 °C	54.4 °C	-4.69	-6.19	0.177
RPE	0.356	56 °C	55.2 °C	-0.485	-1.28	0.306
RPIA	-0.157	56.4 °C	55.2 °C	-0.283	-2.14	0.208
RSBN1	0.0741	–	53.1 °C	-1.37	-1.2	-0.345
SBF1	-0.108	50.9 °C	50.4 °C	0.301	-0.247	-0.118
SETX	0.0473	49.9 °C	51 °C	0.199	1.04	-0.385
SIRT5	-0.233	50.9 °C	50.9 °C	-0.174	0.987	0.419
SLC7A1	-0.171	61.5 °C	60.9 °C	-2.64	-4.52	-0.215
SLC38A10	0.284	54.2 °C	54.7 °C	2.59	0.548	-0.351
SMARCA2	-0.051	47.8 °C	49.7 °C	2.43	4.33	-0.129
SON	1.3	47.4 °C	49.4 °C	0.322	4.26	-1.78
SORCS2	-0.162	53.7 °C	50.4 °C	-2.23	-3.21	0.0123
SPCS2	-0.0337	51.9 °C	52.8 °C	-0.361	-0.329	0.173
SPEN	0.433	49 °C	50.4 °C	1.63	4.49	-0.619
SRGAP1	-0.1	50.5 °C	51.2 °C	0.466	0.773	0.2

Substance	solubility change mitosis (log2) (HeLa Kyoto [1])	melting temperature (HeLa Kyoto [2]; cell cycle stage: G1/S)	melting temperature (HeLa Kyoto [2]; cell cycle stage: mitosis)	thermal stability score (HeLa Kyoto [3]; [5])	thermal stability score (HeLa Kyoto [3]; cell cycle stage: mitosis)	solubility in G1/S (log2) (HeLa Kyoto [4])
SRSF6	0.385	49.8 °C	50.6 °C	-0.248	-2.07	-0.646
STK38L	-0.074	50.2 °C	49.3 °C	0.62	1.53	-0.0449
STRIP1	-0.214	51.3 °C	49.6 °C	0.575	0.412	0.0221
SUCLG1	-0.0912	50.8 °C	50.9 °C	-0.306	-0.375	0.168
SVEP1	-0.0333	54.1 °C	55.1 °C	1.39	1.6	-0.163
TACC3	0.304	53.3 °C	53.1 °C	-0.722	1.13	0.351
TAF15	0.12	51.1 °C	53.1 °C	-0.357	-4.49	-0.786
THOP1	-0.109	56.3 °C	56.1 °C	-1.55	-2.28	0.0611
TIMM17A	-0.00894	58.5 °C	58.7 °C	-1.93	-3.23	0.157
TNKS1BP1	0.0438	57.1 °C	59.8 °C	-3.49	-3.6	-0.0801
TP53BP1	-0.107	49.9 °C	50.8 °C	-3.39	-2.67	-0.0663
TPP2	-0.106	54.6 °C	54.2 °C	-1.14	-1.13	-0.0302
TTN	0.167	50.4 °C	51.5 °C	2.14	1.45	-0.476
UBE2Q1	-0.042	50 °C	50.3 °C	0.426	0.875	0.255
UBR1	-0.26	48.6 °C	50.3 °C	0.878	1.16	-0.252
UBR4	-0.163	51.3 °C	50.4 °C	-0.403	0.0628	-0.243
UBR5	-0.155	47.5 °C	49.8 °C	1.78	5.42	-0.142
USP9X	-0.134	50.4 °C	50.6 °C	-0.0892	0.618	-0.226
VPRBP	-0.0867	50.8 °C	50.6 °C	-0.576	-0.973	-0.225
VPS13A	-0.144	53.6 °C	53.7 °C	-1.93	-1.94	-0.236
VWA8	-0.0997	50.3 °C	50.4 °C	1.66	1.12	-0.224
WDR62	0.187	49 °C	49.3 °C	0.713	1.36	-0.382
WRAP53	-0.144	53.7 °C	53.4 °C	-1.59	-0.902	-0.0145
YES1	0.0165	51.2 °C	50.9 °C	0.418	0.409	-0.536
